Results taken from patent US20060052582A1, “Identification of inhibitors of mitosis” (priority 2002, published 2006).

System: Nek6
Test: Activity and phosphorylation of GST Nek6 coexpressed with Nercc1 noncatalytic fragment in HEK293 cells
Type: cell-based, human
Protocol: GST Nek6 was coexpressed with increasing quantities of FLAG Nercc1 (347-979). The kinase activity of GST Nek6 was measured using MBP as substrate.
GST Nek6 was cotransfected in HEK293 cells with increasing amounts of FLAG Nercc1 (347-979), and immunoblots of the extracts were carried out using the indicated antibodies.

Chain of Nek6 (Q9HC98 whole entry, the tested form may be a part): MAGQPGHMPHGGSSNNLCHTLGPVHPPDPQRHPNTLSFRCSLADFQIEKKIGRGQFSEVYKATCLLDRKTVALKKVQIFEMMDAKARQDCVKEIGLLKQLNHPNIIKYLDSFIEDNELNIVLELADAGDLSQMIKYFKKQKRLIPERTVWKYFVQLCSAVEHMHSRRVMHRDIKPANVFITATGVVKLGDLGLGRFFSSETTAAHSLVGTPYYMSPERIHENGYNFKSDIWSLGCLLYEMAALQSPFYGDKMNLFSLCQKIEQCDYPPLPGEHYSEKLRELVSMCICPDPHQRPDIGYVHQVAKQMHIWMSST

B1: FLAG Nercc1 (347-979): FLAG-tagged polypeptide consisting of Nercc1 amino acids 347-979 of SEQ ID NO:2 (protein, listed as Homo sapiens)
chain: SEVYIWGGGKSTPQKLDVIKSGCSARQVCAGNTHFAVVTVEKELYTWVNMQGGTKLHGQLGHGDKASYRQPKHVEKLQGKAIHQVSCGDDFTVCVTDEGQLYAFGSDYYGCMGVDKVAGPEVLEPMQLNFFLSNPVEQVSCGDNHVVVLTRNKEVYSWGCGEYGRLGLDSEEDYYTPQKVDVPKALIIVAVQCGCDGTFLLTQSGKVLACGLNEFNKLGLNQCMSGIINHEAYHEVPYTTSFTLAKQLSFYKIRTIAPGKTHTAAIDERGRLLTFGCNKCGQLGVGNYKKRLGINLLGGPLGGKQVIRVSCGDEFTIAATDDNHIFAWGNGGNGRLAMTPTERPHGSDICTSWPRPIFGSLHHVPDLSCRGWHTILIVEKVLNSKTIRSNSSGLSIGTVFQSSSPGGGGGGGGGEEEDSQQESETPDPSGGFRGTMEADRGMEGLISPTEAMGNSNGASSSCPGWLRKELENAEFIPMPDSPSPLSAAFSESEKDTLPYEELQGLKVASEAPLEHKPQVEASSPRLNPAVTCAGKGTPLTPPACACSSLQVEVERLQGLVLKCLAEQQKLQQENLQIFTQLQKLNKKLEGGQQVGMHSKGTQTAKEEMEMDPKPDLDSDSGCLLGTDSCRPSL
modifications: FLAG tag
B1 was tested, and the “effect on Nek6 activation loop phosphorylation” value (cotransfected in HEK293 cells) was “suppresses” and the “effect on kinase activity of coexpressed GST Nek6” value (overexpression in vivo, MBP as substrate) was “inhibited”.
